We go through 1 molecule from patent US20230129812A1, “COMPOSITIONS AND METHODS FOR TREATING PULMONARY HYPERTENSION” (Acceleron Pharma Inc., priority 2020, published 2023).

The target in one assay is T1, BMP10 (Homo sapiens, UniProt O95393).
T1 sequence (O95393 317-424): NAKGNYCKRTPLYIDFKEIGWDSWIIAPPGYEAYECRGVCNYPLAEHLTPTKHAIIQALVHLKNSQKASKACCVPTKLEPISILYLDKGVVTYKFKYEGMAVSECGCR
Briefly: Biacore ligand binding profile, ActRIIA-Fc:ALK4-Fc heterodimer vs homodimers, anti-Fc capture (Example 17, Table 14). Conditions: ligand BMP10, Table 14. As to the method: (§1) A Biacore™-based binding assay was used to compare ligand binding selectivity of the ActRIIA-Fc:ALK4-Fc heterodimeric complex described above with that of ActRIIA-Fc and ALK4-Fc homodimeric complexes. The ActRIIA-Fc:ALK4-Fc heterodimer, ActRIIA-Fc homodimer, and ALK4-Fc homodimer were independently captured onto the system using an anti-Fc antibody. Ligands were injected and allowed to flow over the captured receptor protein. Results are summarized in Table 14 below, in which ligand off-rates (kd) most indicative of effective ligand traps are denoted in bold.

A further assay has as its target T2, activin AB (Homo sapiens, UniProt P08476+P09529).
T2 sequence (P08476 311-426): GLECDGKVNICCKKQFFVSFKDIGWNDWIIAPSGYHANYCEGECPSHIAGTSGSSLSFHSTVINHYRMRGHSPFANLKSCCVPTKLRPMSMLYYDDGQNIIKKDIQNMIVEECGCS
T2 sequence (P09529 293-407): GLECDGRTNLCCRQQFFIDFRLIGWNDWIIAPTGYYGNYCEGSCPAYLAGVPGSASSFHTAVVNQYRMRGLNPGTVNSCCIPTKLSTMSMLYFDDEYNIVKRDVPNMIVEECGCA
The assay is described as above. Conditions: ligand Activin AB, Table 14. As to the method:
as §1

Assay [1] has as its target T3, activin A (Homo sapiens, UniProt P08476).
T3 sequence (P08476 311-426): T2 sequence (P08476 311-426)
The description is as above. The following applies: ligand Activin A, Table 14. As for the experimental part: as §1

Assay [2] addresses T4, GDF11 (Homo sapiens, UniProt O95390).
T4 sequence (O95390 299-407): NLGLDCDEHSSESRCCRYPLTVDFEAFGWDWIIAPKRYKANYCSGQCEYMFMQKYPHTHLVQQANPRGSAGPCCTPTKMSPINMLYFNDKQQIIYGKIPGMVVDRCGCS
The description is as above. The following applies: ligand GDF11, Table 14. As for the experimental part: as §1

The target in assay [3] is T5, activin B (Homo sapiens, UniProt P09529).
T5 sequence (P09529 293-407): T2 sequence (P09529 293-407)
The description is as above. Conditions: ligand Activin B, Table 14. As for the experimental part: as §1

Another assay deals with T6, activin AC (Homo sapiens, UniProt P08476+P55103).
T6 sequence (P08476 311-426): T2 sequence (P08476 311-426)
T6 sequence (P55103 237-352): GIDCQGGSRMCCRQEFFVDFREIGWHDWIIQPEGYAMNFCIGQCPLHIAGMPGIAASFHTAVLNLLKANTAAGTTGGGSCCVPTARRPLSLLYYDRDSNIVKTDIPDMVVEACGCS
The description is as above. The following applies: ligand Activin AC, Table 14. As for the experimental part:
as §1

A further assay has as its target T7, BMP7 (Homo sapiens, UniProt P18075).
T7 sequence (P18075 293-431): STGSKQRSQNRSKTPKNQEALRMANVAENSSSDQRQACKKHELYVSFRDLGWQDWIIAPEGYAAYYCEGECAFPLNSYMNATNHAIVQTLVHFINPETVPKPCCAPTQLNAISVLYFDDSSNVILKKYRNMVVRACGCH
The assay is described as above. Conditions: ligand BMP7, Table 14. As for the experimental part:
as §1

Another assay concerns the target T8, BMP6 (Homo sapiens, UniProt P22004).
T8 sequence (P22004 375-513): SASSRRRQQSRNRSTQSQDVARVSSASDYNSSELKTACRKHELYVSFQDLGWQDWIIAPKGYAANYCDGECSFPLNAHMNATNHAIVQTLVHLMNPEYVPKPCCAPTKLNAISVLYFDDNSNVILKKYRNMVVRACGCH
The assay is described as above. The following applies: ligand BMP6, Table 14. As to the method:
as §1

Assay [4] concerns the target T9, GDF8 (Homo sapiens, UniProt O14793).
T9 sequence (O14793 267-375): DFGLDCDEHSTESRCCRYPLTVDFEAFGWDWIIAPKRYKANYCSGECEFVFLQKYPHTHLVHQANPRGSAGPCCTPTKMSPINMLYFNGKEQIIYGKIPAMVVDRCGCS
Described as above. The following applies: ligand GDF8, Table 14. As for the experimental part: as §1

Assay [5] concerns the target T3, activin A. As to the kind of experiment: Biacore ligand binding profile, ALK4-Fc:ActRIIB-Fc heterodimer vs homodimers, anti-Fc capture (Example 13, Table 13). Conditions: ligand Activin A, Table 13. As for the experimental part:
(§2) A Biacore™-based binding assay was used to compare ligand binding selectivity of the ALK4-Fc:ActRIIB-Fc heterodimeric complex described above with that of ActRIIB-Fc and ALK4-Fc homodimer complexes. The ALK4-Fc:ActRIeB-Fc heterodimer, […], and ALK4-Fc homodimer were independently captured onto the system using an anti-Fc antibody. Ligands were injected and allowed to flow over the captured receptor protein. Results are summarized in Table 13 below, in which ligand off-rates (kd) most indicative of effective polypeptides are denoted in bold.
Background: Surface plasmon resonance follows binding to a sensor surface in real time, without labels.

Assay [6] has as its target T4, GDF11. Described as above. Conditions: ligand GDF11, Table 13. As for the experimental part: as §2
Assay [7] concerns the target T5, activin B. The assay is described as above. Conditions: ligand Activin B, Table 13. As for the experimental part: as §2
The target in assay [8] is T9, GDF8. Described as above. The following applies: ligand GDF8, Table 13. As to the method: as §2

B1: ALK4-Fc homodimer: ALK4-Fc homodimer complex used as comparator in Examples 13 and 17 (protein)
chain: SGPRGVQALLCACTSCLQANYTCETDGACMVSIFNLDGMEHHVRTCIPKVELVPAGKPFYCLSSEDLRNTHCCYTDYCNRIDLRVPSGHLKEPEHPSMWGPVE
modifications: left off: a dimerising Fc or GST
By Kd is commonly meant the concentration at which binding is half-saturated. Turning to B1, the KD result with BMP10, in the assay with activin B [3], with activin AC, in the assay with BMP7, in the assay with BMP6 and in the assay with activin B [7] was “No binding” throughout. Besides, the ka is 1.8e+06 M⁻¹ s⁻¹ in the assay with activin AB; 580000 M⁻¹ s⁻¹ in the assay with activin A [1]; 5e+06 M⁻¹ s⁻¹ with GDF11 [2]; 130000 M⁻¹ s⁻¹ in the assay with GDF8 [4]; 580000 M⁻¹ s⁻¹ in the assay with activin A [5]; 5e+06 M⁻¹ s⁻¹ in the assay with GDF11 [6]. Moreover, the ka with GDF8 [8] came out at 130000 M⁻¹ s⁻¹. In addition, the kd with activin AB stood at 0.0036 s⁻¹; in the assay with activin A [1] it was 0.012 s⁻¹; with GDF11 [2], 0.0048 s⁻¹; in the assay with GDF8 [4], 0.0019 s⁻¹; with activin A [5], 0.012 s⁻¹; with GDF11 [6] it was 0.0048 s⁻¹. Also, in the assay with GDF8 [8], the kd was found to be 0.0019 s⁻¹. The results for the Kd with GDF8 [4], in the assay with GDF11 [6] and in the assay with GDF8 [8] were 15 nM, 0.27 nM and 15 nM, respectively.
